Where two headings read alike, the source gives them in different places. Numbered stars: 1 amine (or outer) side, 2 acyl side, 3 side chain; on linkers, the order of the positions; unused ones are H or OH. Square brackets hold non-standard residues; d marks the D form. Side chains are listed from the residue outwards. Ends that are not written are not given here. * marks the point of attachment. γGlu = O=C(O)[C@H](CCC(=O)[*:2])N[*:1]; Palmitoyl = CCCCCCCCCCCCCCCC(=O)*; Aib = CC(C)(N)C(=O)O
T1: human GIP receptor (human, UniProt P48546 22-466)
T1 sequence (looked up): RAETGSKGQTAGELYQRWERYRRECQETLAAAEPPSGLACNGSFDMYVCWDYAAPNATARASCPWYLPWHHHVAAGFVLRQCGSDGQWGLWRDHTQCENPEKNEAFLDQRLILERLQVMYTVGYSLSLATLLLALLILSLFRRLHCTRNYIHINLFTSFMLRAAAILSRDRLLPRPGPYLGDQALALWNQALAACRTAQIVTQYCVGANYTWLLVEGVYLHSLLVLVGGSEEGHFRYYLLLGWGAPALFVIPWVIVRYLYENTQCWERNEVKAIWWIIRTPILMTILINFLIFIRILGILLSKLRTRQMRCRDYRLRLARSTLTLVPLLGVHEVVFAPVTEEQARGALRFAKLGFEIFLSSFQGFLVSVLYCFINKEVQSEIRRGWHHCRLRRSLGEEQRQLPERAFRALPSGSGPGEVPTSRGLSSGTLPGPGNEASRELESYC

B1: SEQ ID NO: 31 (peptide)
peptide: H[dS]QGTFTSDLSKQK([γGlu-γGlu-Palmitoyl])EEEAARLFIEWLKAGGPSSGAPPPS-NH2
modifications: N-terminus assumed
SMILES: CCCCCCCCCCCCCCCC(=O)N[C@@H](CCC(=O)N[C@@H](CCC(=O)NCCCC[C@H](NC(=O)[C@H](CCC(N)=O)NC(=O)[C@H](CCCCN)NC(=O)[C@H](CO)NC(=O)[C@H](CC(C)C)NC(=O)[C@H](CC(=O)O)NC(=O)[C@H](CO)NC(=O)[C@@H](NC(=O)[C@H](Cc1ccccc1)NC(=O)[C@@H](NC(=O)CNC(=O)[C@H](CCC(N)=O)NC(=O)[C@@H](CO)NC(=O)[C@@H](N)Cc1c[nH]cn1)[C@@H](C)O)[C@@H](C)O)C(=O)N[C@@H](CCC(=O)O)C(=O)N[C@@H](CCC(=O)O)C(=O)N[C@@H](CCC(=O)O)C(=O)N[C@@H](C)C(=O)N[C@@H](C)C(=O)N[C@@H](CCCNC(=N)N)C(=O)N[C@@H](CC(C)C)C(=O)N[C@@H](Cc1ccccc1)C(=O)N[C@H](C(=O)N[C@@H](CCC(=O)O)C(=O)N[C@@H](Cc1c[nH]c2ccccc12)C(=O)N[C@@H](CC(C)C)C(=O)N[C@@H](CCCCN)C(=O)N[C@@H](C)C(=O)NCC(=O)NCC(=O)N1CCC[C@H]1C(=O)N[C@@H](CO)C(=O)N[C@@H](CO)C(=O)NCC(=O)N[C@@H](C)C(=O)N1CCC[C@H]1C(=O)N1CCC[C@H]1C(=O)N1CCC[C@H]1C(=O)N[C@@H](CO)C(N)=O)[C@@H](C)CC)C(=O)O)C(=O)O
B2: SEQ ID NO: 13 (peptide)
peptide: HXQGTFTSDLSKQKDEEAARLFIEWLXAGGPSSGAPPPS
modifications: D-Ser at 2; Lys 14 side chain K(γE-x70) = (S)-4-Carboxy-4-octadecanoylamino-butyryl-; Aib at 27; C-terminal amide
B3: SEQ ID NO: 14 (peptide)
peptide: B2 peptide
modifications: D-Ser at 2; Lys 14 side chain K(γE-x53) = (S)-4-Carboxy-4-hexadecanoylamino-butyryl-; Aib at 27; C-terminal amide
B4: SEQ ID NO: 11 (peptide)
peptide: HSQGTFTSDLSKQK([γGlu-γGlu-Palmitoyl])DEEAARLFIEWL[Aib]AGGPSSGAPPPS-NH2
modifications: N-terminus assumed
SMILES: CCCCCCCCCCCCCCCC(=O)N[C@@H](CCC(=O)N[C@@H](CCC(=O)NCCCC[C@H](NC(=O)[C@H](CCC(N)=O)NC(=O)[C@H](CCCCN)NC(=O)[C@H](CO)NC(=O)[C@H](CC(C)C)NC(=O)[C@H](CC(=O)O)NC(=O)[C@H](CO)NC(=O)[C@@H](NC(=O)[C@H](Cc1ccccc1)NC(=O)[C@@H](NC(=O)CNC(=O)[C@H](CCC(N)=O)NC(=O)[C@H](CO)NC(=O)[C@@H](N)Cc1c[nH]cn1)[C@@H](C)O)[C@@H](C)O)C(=O)N[C@@H](CC(=O)O)C(=O)N[C@@H](CCC(=O)O)C(=O)N[C@@H](CCC(=O)O)C(=O)N[C@@H](C)C(=O)N[C@@H](C)C(=O)N[C@@H](CCCNC(=N)N)C(=O)N[C@@H](CC(C)C)C(=O)N[C@@H](Cc1ccccc1)C(=O)N[C@H](C(=O)N[C@@H](CCC(=O)O)C(=O)N[C@@H](Cc1c[nH]c2ccccc12)C(=O)N[C@@H](CC(C)C)C(=O)NC(C)(C)C(=O)N[C@@H](C)C(=O)NCC(=O)NCC(=O)N1CCC[C@H]1C(=O)N[C@@H](CO)C(=O)N[C@@H](CO)C(=O)NCC(=O)N[C@@H](C)C(=O)N1CCC[C@H]1C(=O)N1CCC[C@H]1C(=O)N1CCC[C@H]1C(=O)N[C@@H](CO)C(N)=O)[C@@H](C)CC)C(=O)O)C(=O)O
B5: SEQ ID NO: 16 (peptide)
peptide: H[dS]QGTFTSDLSKQK([γGlu-γGlu-Palmitoyl])EEEAARLFIEWL[Aib]AGGPSSGAPPPS-NH2
modifications: N-terminus assumed
SMILES: CCCCCCCCCCCCCCCC(=O)N[C@@H](CCC(=O)N[C@@H](CCC(=O)NCCCC[C@H](NC(=O)[C@H](CCC(N)=O)NC(=O)[C@H](CCCCN)NC(=O)[C@H](CO)NC(=O)[C@H](CC(C)C)NC(=O)[C@H](CC(=O)O)NC(=O)[C@H](CO)NC(=O)[C@@H](NC(=O)[C@H](Cc1ccccc1)NC(=O)[C@@H](NC(=O)CNC(=O)[C@H](CCC(N)=O)NC(=O)[C@@H](CO)NC(=O)[C@@H](N)Cc1c[nH]cn1)[C@@H](C)O)[C@@H](C)O)C(=O)N[C@@H](CCC(=O)O)C(=O)N[C@@H](CCC(=O)O)C(=O)N[C@@H](CCC(=O)O)C(=O)N[C@@H](C)C(=O)N[C@@H](C)C(=O)N[C@@H](CCCNC(=N)N)C(=O)N[C@@H](CC(C)C)C(=O)N[C@@H](Cc1ccccc1)C(=O)N[C@H](C(=O)N[C@@H](CCC(=O)O)C(=O)N[C@@H](Cc1c[nH]c2ccccc12)C(=O)N[C@@H](CC(C)C)C(=O)NC(C)(C)C(=O)N[C@@H](C)C(=O)NCC(=O)NCC(=O)N1CCC[C@H]1C(=O)N[C@@H](CO)C(=O)N[C@@H](CO)C(=O)NCC(=O)N[C@@H](C)C(=O)N1CCC[C@H]1C(=O)N1CCC[C@H]1C(=O)N1CCC[C@H]1C(=O)N[C@@H](CO)C(N)=O)[C@@H](C)CC)C(=O)O)C(=O)O
B6: SEQ ID NO: 6 (peptide)
peptide: H[dS]HGTFTSDLSKQK([γGlu-γGlu-Palmitoyl])EEEAARLFIEWL[Aib]AGGPSSGAPPPS-NH2
modifications: N-terminus assumed
SMILES: CCCCCCCCCCCCCCCC(=O)N[C@@H](CCC(=O)N[C@@H](CCC(=O)NCCCC[C@H](NC(=O)[C@H](CCC(N)=O)NC(=O)[C@H](CCCCN)NC(=O)[C@H](CO)NC(=O)[C@H](CC(C)C)NC(=O)[C@H](CC(=O)O)NC(=O)[C@H](CO)NC(=O)[C@@H](NC(=O)[C@H](Cc1ccccc1)NC(=O)[C@@H](NC(=O)CNC(=O)[C@H](Cc1c[nH]cn1)NC(=O)[C@@H](CO)NC(=O)[C@@H](N)Cc1c[nH]cn1)[C@@H](C)O)[C@@H](C)O)C(=O)N[C@@H](CCC(=O)O)C(=O)N[C@@H](CCC(=O)O)C(=O)N[C@@H](CCC(=O)O)C(=O)N[C@@H](C)C(=O)N[C@@H](C)C(=O)N[C@@H](CCCNC(=N)N)C(=O)N[C@@H](CC(C)C)C(=O)N[C@@H](Cc1ccccc1)C(=O)N[C@H](C(=O)N[C@@H](CCC(=O)O)C(=O)N[C@@H](Cc1c[nH]c2ccccc12)C(=O)N[C@@H](CC(C)C)C(=O)NC(C)(C)C(=O)N[C@@H](C)C(=O)NCC(=O)NCC(=O)N1CCC[C@H]1C(=O)N[C@@H](CO)C(=O)N[C@@H](CO)C(=O)NCC(=O)N[C@@H](C)C(=O)N1CCC[C@H]1C(=O)N1CCC[C@H]1C(=O)N1CCC[C@H]1C(=O)N[C@@H](CO)C(N)=O)[C@@H](C)CC)C(=O)O)C(=O)O
B7: SEQ ID NO: 28 (peptide)
peptide: H[dS]QGTFTSDLSKQLDEEAARLFIEWL[Aib]AGGPSSGAPPPS-NH2
modifications: N-terminus assumed
SMILES: CC[C@H](C)[C@H](NC(=O)[C@H](Cc1ccccc1)NC(=O)[C@H](CC(C)C)NC(=O)[C@H](CCCNC(=N)N)NC(=O)[C@H](C)NC(=O)[C@H](C)NC(=O)[C@H](CCC(=O)O)NC(=O)[C@H](CCC(=O)O)NC(=O)[C@H](CC(=O)O)NC(=O)[C@H](CC(C)C)NC(=O)[C@H](CCC(N)=O)NC(=O)[C@H](CCCCN)NC(=O)[C@H](CO)NC(=O)[C@H](CC(C)C)NC(=O)[C@H](CC(=O)O)NC(=O)[C@H](CO)NC(=O)[C@@H](NC(=O)[C@H](Cc1ccccc1)NC(=O)[C@@H](NC(=O)CNC(=O)[C@H](CCC(N)=O)NC(=O)[C@@H](CO)NC(=O)[C@@H](N)Cc1c[nH]cn1)[C@@H](C)O)[C@@H](C)O)C(=O)N[C@@H](CCC(=O)O)C(=O)N[C@@H](Cc1c[nH]c2ccccc12)C(=O)N[C@@H](CC(C)C)C(=O)NC(C)(C)C(=O)N[C@@H](C)C(=O)NCC(=O)NCC(=O)N1CCC[C@H]1C(=O)N[C@@H](CO)C(=O)N[C@@H](CO)C(=O)NCC(=O)N[C@@H](C)C(=O)N1CCC[C@H]1C(=O)N1CCC[C@H]1C(=O)N1CCC[C@H]1C(=O)N[C@@H](CO)C(N)=O

Tests used:
Experiment in all cases: cell-based or functional assay
human glucagon receptor [1] = molecular target: T2, human glucagon receptor (human, UniProt P47871 26-477)
T2 sequence (P47871 26-477): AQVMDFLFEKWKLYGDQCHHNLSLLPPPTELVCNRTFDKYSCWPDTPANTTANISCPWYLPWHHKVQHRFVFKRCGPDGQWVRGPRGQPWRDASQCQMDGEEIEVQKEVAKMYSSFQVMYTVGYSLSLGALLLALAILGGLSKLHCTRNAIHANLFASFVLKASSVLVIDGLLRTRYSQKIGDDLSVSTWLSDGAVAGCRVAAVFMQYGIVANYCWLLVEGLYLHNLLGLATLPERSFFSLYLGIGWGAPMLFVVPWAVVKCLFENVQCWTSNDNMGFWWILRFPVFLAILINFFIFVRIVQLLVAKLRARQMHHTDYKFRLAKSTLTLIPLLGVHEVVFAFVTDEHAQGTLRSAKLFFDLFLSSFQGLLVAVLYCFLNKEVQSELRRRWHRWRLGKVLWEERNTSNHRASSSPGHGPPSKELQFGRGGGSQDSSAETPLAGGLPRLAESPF

human GLP-1 receptor [2] = molecular target: T3, human GLP-1 receptor (human, UniProt P43220 24-463)
human GIP receptor [3] = molecular target: T1, human GIP receptor
human glucagon receptor [4] = molecular target: T2, human glucagon receptor; remark: listed apart in the source
human GLP-1 receptor [5] = molecular target: T3, human GLP-1 receptor; remark: listed apart in the source
human GIP receptor [6] = molecular target: T1, human GIP receptor; remark: listed apart in the source
human glucagon receptor [7] = molecular target: T2, human glucagon receptor; remark: listed apart in the source
human GLP-1 receptor [8] = molecular target: T3, human GLP-1 receptor; remark: listed apart in the source
human GIP receptor [9] = molecular target: T1, human GIP receptor; remark: listed apart in the source

Binder | EC50 hGlucagon-R (human glucagon receptor [1]) [nM] | EC50 hGLP-1R (human GLP-1 receptor [2]) [nM] | EC50 hGIP-1 (human GIP receptor [3]) [nM] | EC50 hGlucagon-R (human glucagon receptor [4]) [nM] | EC50 hGLP-1R (human GLP-1 receptor [5]) [nM] | EC50 hGIP-1 (human GIP receptor [6]) [nM] | EC50 hGlucagon-R (human glucagon receptor [7]) [nM] | EC50 hGLP-1R (human GLP-1 receptor [8]) [nM] | EC50 hGIP-R (human GIP receptor [9]) [nM]
B1 | 0.0074 | 0.0013 | 0.345 |  |  |  |  |  | 
B2 |  |  |  | 0.0068 | 0.0027 | 2.54 | 0.0068 | 0.0027 | 2.54
B3 |  |  |  | 0.0247 | 0.0021 | 5.36 | 0.0247 | 0.0021 | 5.36
H[dS]QGTFTSDLSKQLDEEAARLFIEWLKAGGPSSGAPPPS-NH2 [SEQ ID NO: 34] |  |  |  | 0.338 | 0.0008 | 26 |  |  | 
B4 | 0.0051 | 0.0012 | 0.56 |  |  |  | 0.0051 | 0.0012 | 0.56
B5 | 0.0354 | 0.0018 | 7.78 |  |  |  | 0.0354 | 0.0018 | 7.78
B6 | 0.0177 | 0.0026 | 1.54 |  |  |  | 0.0177 | 0.0026 | 1.54
B7 |  |  |  | 1.04 | 0.0038 | 343 |  |  | 
H[dS]HGTFTSDLSKQK([γGlu-γGlu-Palmitoyl])DEEAARLFIEWL[Aib]AGGPSSGAPPPS-NH2 [SEQ ID NO: 7] | 0.009 | 0.0015 | 0.908 |  |  |  | 0.009 | 0.0015 | 0.908

Reference: patent US20150322128A1 (Sanofi, published 2015)
